US20040053822A1

Target: HLA-A*0203 (human)
Assay: competition with 125I probe peptide, purified HLA
Conditions: not given

IC50	Substance
0.769 µM	MAGE3.174 11-mer … (peptide)

Target: HLA-A*0301 (human)
Assay: competition with 125I probe peptide, purified HLA
Conditions: not given

IC50	Substance
1 µM	MAGE2.71 11-mer … (peptide)

Target: HLA-A*6802 (human)
Assay: competition with 125I probe peptide, purified HLA
Conditions: not given

IC50	Substance
7.69 µM	MAGE2.112 11-mer … (peptide)
4.49 µM	MAGE3.174 11-mer … (peptide)

Target: HLA-A2401 (human)
Assay: inhibition of 125I probe peptide binding to purified HLA
Conditions: not given

relative binding ratio (IC50 standard/IC50 peptide)	Substance
0.0006	MAGE3 peptide, position 270, 9 amino acids
0.026	MAGE3 peptide, position 221, 11 amino acids
0.042	MAGE3 peptide, position 300, 8 amino acids
0.0004	MAGE3 peptide, position 268, 11 amino acids
0.59	MAGE3 peptide, position 300, 10 amino acids
0.42	MAGE3 peptide, position 195, 9 amino acids
0.05	MAGE3 peptide, position 195, 10 amino acids
0.53	MAGE3 peptide, position 142, 9 amino acids
0.0049	MAGE3 peptide, position 97, 9 amino acids
0.091	MAGE3 peptide, position 150, 11 amino acids

Target: HLA-A*0301 (human)
Assay: competition vs 125I standard peptide, purified HLA-A*0301
Conditions: not given

relative binding ratio (ratio to standard peptide)	Substance
0.0045	MAGE3 peptide, position 115, 9 amino acids
0.0066	MAGE3 peptide, position 115, 10 amino acids
0.0014	MAGE3 peptide, position 118, 10 amino acids
0.0032	MAGE3 peptide, position 267, 10 amino acids
0.0016	MAGE3 peptide, position 118, 9 amino acids

Target: HLA-A*0301 (human)
Assay: 125I-probe competition, purified HLA
Conditions: not given

relative binding ratio	Substance
0.0045	MAGE2 and MAGE3 peptide, position 115, 9 amino acids

Target: HLA-A*6802 (human)
Assay: competition with 125I probe peptide, purified HLA, gel filtration
Conditions: scale: ratio

relative binding ratio	Substance
0.0012	MAGE3 peptide, position 220, 9 amino acids

Target: HLA-A*2401 (human)
Assay: inhibition of 125I-labelled standard peptide binding to purified HLA
Conditions: not given

relative binding ratio (IC50 standard peptide / IC50 test peptide)	Substance
0.0049	MAGE3 97-105 (position 97, 9 amino acids) (peptide)
0.091	MAGE3 150-160 (position 150, 11 amino acids) (peptide)
0.042	MAGE3 300-307 (position 300, 8 amino acids) (peptide)
0.53	MAGE3 142-150 (position 142, 9 amino acids) (peptide)
0.026	MAGE3 221-231 (position 221, 11 amino acids) (peptide)
0.42	MAGE3 195-203 (position 195, 9 amino acids) (peptide)
0.05	MAGE3 195-204 (position 195, 10 amino acids) (peptide)
0.59	MAGE3 300-309 (position 300, 10 amino acids) (peptide)
